Measured values taken from publication PMC4522657, “Identification of a DYRK1A Inhibitor that Induces Degradation of the Target Kinase using Co-chaperone CDC37 fused with Luciferase nanoKAZ” (Scientific Reports, 2015).

Key:
CDC37 (CDC37-nanoKAZ) = CDC37 (CDC37-nanoKAZ) (UniProt Q16543); assay: anti-FLAG plate capture, luciferase-fusion luminescence; conditions: reference: wild type
HSP90β (nanoKAZ-HSP90β) = HSP90β (nanoKAZ-HSP90β) (UniProt P08238); assay: as above; conditions: reference: wild type

## DYRK1A (from UniProt Q13627) K188R kinase-dead (no autophosphorylation)
CDC37 (CDC37-nanoKAZ)
  fold change: 17
HSP90β (nanoKAZ-HSP90β)
  fold change: 10

## DYRK1A (from UniProt Q13627) Y111F
CDC37 (CDC37-nanoKAZ); sites Y111
  fold change: 1.4

## DYRK1A (from UniProt Q13627) Y145F/Y147F
CDC37 (CDC37-nanoKAZ); sites Y145,Y147
  fold change: 2.4

## DYRK1A (from UniProt Q13627) Y159F
CDC37 (CDC37-nanoKAZ); sites Y159
  fold change: 8.4

## DYRK1A (from UniProt Q13627) Y319F/Y321F
CDC37 (CDC37-nanoKAZ); sites Y319,Y321
  fold change: 8
HSP90β (nanoKAZ-HSP90β); sites Y319,Y321
  fold change: 3.8
